Consider one molecule from patent CN105542008A (UNIV NANCHANG, dated 2016).

One assay addresses T1, 重组表达的PSMA胞外区蛋白 (UniProt Q04609 44-750, limits assumed).
T1 construct: extracellular domain; also called 前列腺特异性膜抗原膜外区; PSMA蛋白; not shown: His tag (purified on HisTrap, detected with anti-His antibody)
Nature of the assay: indirect phage-ELISA, PSMA extracellular domain coated at 5 μg/mL, HRP-anti-M13 detection. (In general: ELISA stands for enzyme-linked immunosorbent assay.)

Assay [1] deals with T2, 前列腺特异性膜抗原 (PSMA) on LNCaP cells (UniProt Q04609 1-750, limits assumed).
T2 construct: whole, on cells; also called LNCaP细胞(表达PSMA)
Description: cell ELISA (HRP-anti-M13) and immunofluorescence on fixed LNCaP cells, with PSMA-negative MKN45 cells as comparison.

T1 sequence (Q04609 44-750 limits assumed): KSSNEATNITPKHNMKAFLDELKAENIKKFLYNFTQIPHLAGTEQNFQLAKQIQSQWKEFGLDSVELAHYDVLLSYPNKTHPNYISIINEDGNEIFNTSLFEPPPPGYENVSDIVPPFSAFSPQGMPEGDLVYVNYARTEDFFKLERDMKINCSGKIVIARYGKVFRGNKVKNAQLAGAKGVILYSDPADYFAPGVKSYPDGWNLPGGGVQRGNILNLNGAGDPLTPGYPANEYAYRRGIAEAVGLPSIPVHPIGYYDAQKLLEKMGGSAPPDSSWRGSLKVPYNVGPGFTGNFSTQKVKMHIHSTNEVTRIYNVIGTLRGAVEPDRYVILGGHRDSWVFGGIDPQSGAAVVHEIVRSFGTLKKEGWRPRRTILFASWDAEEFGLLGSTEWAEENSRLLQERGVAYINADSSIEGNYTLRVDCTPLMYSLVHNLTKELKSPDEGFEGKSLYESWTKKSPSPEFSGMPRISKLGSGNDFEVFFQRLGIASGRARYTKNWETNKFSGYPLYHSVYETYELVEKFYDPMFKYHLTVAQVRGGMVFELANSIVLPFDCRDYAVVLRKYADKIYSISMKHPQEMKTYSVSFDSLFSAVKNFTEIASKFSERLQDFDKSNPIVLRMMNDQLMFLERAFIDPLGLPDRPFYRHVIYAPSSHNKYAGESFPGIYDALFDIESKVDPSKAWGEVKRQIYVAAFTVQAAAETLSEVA
T2 sequence (Q04609 whole entry): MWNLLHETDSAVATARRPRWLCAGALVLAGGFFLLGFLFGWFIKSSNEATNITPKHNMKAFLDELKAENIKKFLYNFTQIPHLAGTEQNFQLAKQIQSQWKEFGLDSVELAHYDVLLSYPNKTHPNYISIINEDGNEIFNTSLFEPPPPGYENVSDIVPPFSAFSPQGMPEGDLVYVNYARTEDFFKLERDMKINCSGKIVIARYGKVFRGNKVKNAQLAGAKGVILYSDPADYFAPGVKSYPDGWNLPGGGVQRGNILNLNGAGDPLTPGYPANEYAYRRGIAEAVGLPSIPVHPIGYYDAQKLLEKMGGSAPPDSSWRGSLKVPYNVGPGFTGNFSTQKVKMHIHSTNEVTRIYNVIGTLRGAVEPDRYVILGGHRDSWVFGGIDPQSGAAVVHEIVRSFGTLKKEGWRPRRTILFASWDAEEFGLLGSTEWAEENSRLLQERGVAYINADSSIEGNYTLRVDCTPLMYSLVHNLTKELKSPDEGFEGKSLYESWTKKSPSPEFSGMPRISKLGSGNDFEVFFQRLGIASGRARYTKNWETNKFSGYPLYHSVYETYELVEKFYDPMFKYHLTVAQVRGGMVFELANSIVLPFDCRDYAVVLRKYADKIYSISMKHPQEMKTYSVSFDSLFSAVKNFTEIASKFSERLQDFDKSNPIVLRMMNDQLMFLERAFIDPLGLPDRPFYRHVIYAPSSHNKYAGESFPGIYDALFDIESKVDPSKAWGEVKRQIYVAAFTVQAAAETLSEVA

B1: 抗前列腺特异性膜抗原单域重链抗体噬菌体阳性克隆 (VHH)
VHH: QLQLVESGGGLVQPGGSLRLTCTTSGFSLRYHDIGWFRQAPGKEREGVSCITGSLGDPYVDESLQGRFTISRDDHKNMVYLRMNSLKSEDTALYYCAIVRGCKDHDAYADVRARGQGTQVTVSS
notes: also called 针对前列腺特异性膜抗原的单域重链抗体阳性克隆; 展示本发明所述纳米抗体的噬菌体克隆; not shown: the fusion to the phage coat protein is not described
In the case of B1, the binding result (with 重组表达的PSMA胞外区蛋白; in assay [1]) was “binds” in each case.
